According to patent US20170355766A1 (Xencor, published 2017):
Numbering of substitutions follows the chain as printed. Numbers in names are those of the source.

B1: A327D/L328Y/I332E (antibody, human IgG1, kappa)
heavy: EVQLVESGGGLVKPGGSLKLSCAASGYTFTSYVMHWVRQAPGKGLEWIGYINPYNDGTKYNEKFQGRVTISSDKSISTAYMELSSLRSEDTAMYYCARGTYYYGTRVFDYWGQGTLVTVSSASTKGPSVFPLAPSSKSTSGGTAALGCLVKDYFPEPVTVSWNSGALTSGVHTFPAVLQSSGLYSLSSVVTVPSSSLGTQTYICNVNHKPSNTKVDKKVEPKSCDKTHTCPPCPAPELLGGPSVFLFPPKPKDTLMISRTPEVTCVVVDVSHEDPEVKFNWYVDGVEVHNAKTKPREEQYNSTYRVVSVLTVLHQDWLNGKEYKCKVSNKDYPAPEEKTISKAKGQPREPQVYTLPPSREEMTKNQVSLTCLVKGFYPSDIAVEWESNGQPENNYKTTPPVLDSDGSFFLYSKLTVDKSRWQQGNVFSCSVMHEALHNHYTQKSLSLSPGK
light: DIVMTQSPATLSLSPGERATLSCRSSKSLQNVNGNTYLYWFQQKPGQSPQLLIYRMSNLNSGVPDRFSGSGSGTEFTLTISSLEPEDFAVYYCMQHLEYPITFGAGTKLEIKRTVAAPSVFIFPPSDEQLKSGTASVVCLLNNFYPREAKVQWKVDNALQSGNSQESVTEQDSKDSTYSLSSTLTLSKADYEKHKVYACEVTHQGLSSPVTKSFNRGEC
notes: HuAM4G7 IgG1 Fc variant
B2: H268D/A327D (antibody, human IgG1, kappa)
heavy: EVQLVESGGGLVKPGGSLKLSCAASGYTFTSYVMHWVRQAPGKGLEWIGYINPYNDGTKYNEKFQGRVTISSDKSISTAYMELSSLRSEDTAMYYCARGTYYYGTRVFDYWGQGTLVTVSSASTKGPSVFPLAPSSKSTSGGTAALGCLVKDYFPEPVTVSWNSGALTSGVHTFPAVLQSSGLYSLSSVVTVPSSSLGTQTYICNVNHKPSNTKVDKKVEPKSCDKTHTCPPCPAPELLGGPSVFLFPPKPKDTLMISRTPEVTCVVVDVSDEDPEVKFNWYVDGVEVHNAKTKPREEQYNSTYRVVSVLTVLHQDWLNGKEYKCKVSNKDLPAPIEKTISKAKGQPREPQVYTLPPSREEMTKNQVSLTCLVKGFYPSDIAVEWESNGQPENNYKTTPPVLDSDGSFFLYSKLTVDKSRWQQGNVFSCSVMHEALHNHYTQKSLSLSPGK
light: B1 light
notes: HuAM4G7 IgG1 Fc variant
B3: H268D/L328W/I332E (antibody, human IgG1, kappa)
heavy: B1 heavy with H272D, D331A, Y332W
light: B1 light
notes: HuAM4G7 IgG1 Fc variant
B4: G237L (antibody, human IgG1, kappa)
heavy: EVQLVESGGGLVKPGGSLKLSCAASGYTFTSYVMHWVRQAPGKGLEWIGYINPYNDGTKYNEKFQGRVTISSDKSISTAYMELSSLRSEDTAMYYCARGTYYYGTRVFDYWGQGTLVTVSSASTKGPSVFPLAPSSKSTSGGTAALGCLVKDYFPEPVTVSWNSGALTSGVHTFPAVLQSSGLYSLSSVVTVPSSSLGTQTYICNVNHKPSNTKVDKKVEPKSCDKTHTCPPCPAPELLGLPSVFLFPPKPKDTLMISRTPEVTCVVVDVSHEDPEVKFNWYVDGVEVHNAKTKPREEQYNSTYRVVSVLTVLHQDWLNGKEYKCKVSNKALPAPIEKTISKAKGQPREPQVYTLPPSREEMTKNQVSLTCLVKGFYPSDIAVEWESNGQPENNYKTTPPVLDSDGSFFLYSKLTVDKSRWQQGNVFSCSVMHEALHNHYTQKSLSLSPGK
light: B1 light
notes: HuAM4G7 IgG1 Fc variant
B5: G236S/G237A (antibody, human IgG1, kappa)
heavy: not shown
light: B1 light
notes: HuAM4G7 IgG1 Fc variant
B6: H268E/L328Y/I332E (antibody, human IgG1, kappa)
heavy: B1 heavy with H272E, D331A
light: B1 light
notes: HuAM4G7 IgG1 Fc variant
B7: H268D/L328Y (antibody, human IgG1, kappa)
heavy: not shown
light: B1 light
notes: HuAM4G7 IgG1 Fc variant
B8: A330D (antibody, human IgG1, kappa)
heavy: not shown
light: B1 light
notes: HuAM4G7 IgG1 Fc variant
B9: G236L (antibody, human IgG1, kappa)
heavy: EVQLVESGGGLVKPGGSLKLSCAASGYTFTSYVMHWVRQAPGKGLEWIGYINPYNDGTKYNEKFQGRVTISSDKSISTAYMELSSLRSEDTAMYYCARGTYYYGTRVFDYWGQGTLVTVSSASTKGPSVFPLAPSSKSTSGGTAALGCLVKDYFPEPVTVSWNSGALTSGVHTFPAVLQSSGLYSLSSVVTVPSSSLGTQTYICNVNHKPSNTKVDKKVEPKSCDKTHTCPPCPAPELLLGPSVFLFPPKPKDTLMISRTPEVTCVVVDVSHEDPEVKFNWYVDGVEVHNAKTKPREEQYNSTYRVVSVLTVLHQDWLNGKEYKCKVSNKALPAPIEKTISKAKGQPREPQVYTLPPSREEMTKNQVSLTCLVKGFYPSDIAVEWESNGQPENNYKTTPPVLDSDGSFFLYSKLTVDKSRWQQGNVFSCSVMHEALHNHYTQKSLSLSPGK
light: B1 light
notes: HuAM4G7 IgG1 Fc variant
B10: G236D/H268D (antibody, human IgG1, kappa)
heavy: not shown
light: B1 light
notes: HuAM4G7 IgG1 Fc variant
B11: H268D/K326D/L328Y (antibody, human IgG1, kappa)
heavy: B1 heavy with H272D, K330D, D331A, E336I
light: B1 light
notes: HuAM4G7 IgG1 Fc variant
B12: A330K (antibody, human IgG1, kappa)
heavy: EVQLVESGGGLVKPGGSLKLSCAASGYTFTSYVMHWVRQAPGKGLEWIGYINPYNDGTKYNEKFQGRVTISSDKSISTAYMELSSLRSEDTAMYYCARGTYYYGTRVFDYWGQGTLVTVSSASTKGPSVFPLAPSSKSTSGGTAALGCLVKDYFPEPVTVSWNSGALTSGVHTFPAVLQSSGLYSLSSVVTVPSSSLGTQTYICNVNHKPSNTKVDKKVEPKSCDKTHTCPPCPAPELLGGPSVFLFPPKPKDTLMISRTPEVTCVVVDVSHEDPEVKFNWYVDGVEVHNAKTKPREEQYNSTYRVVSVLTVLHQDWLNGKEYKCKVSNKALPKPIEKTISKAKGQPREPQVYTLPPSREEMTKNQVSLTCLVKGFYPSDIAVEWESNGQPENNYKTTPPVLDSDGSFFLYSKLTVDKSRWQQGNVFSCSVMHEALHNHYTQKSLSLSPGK
light: B1 light
notes: HuAM4G7 IgG1 Fc variant
B13: G236Y (antibody, human IgG1, kappa)
heavy: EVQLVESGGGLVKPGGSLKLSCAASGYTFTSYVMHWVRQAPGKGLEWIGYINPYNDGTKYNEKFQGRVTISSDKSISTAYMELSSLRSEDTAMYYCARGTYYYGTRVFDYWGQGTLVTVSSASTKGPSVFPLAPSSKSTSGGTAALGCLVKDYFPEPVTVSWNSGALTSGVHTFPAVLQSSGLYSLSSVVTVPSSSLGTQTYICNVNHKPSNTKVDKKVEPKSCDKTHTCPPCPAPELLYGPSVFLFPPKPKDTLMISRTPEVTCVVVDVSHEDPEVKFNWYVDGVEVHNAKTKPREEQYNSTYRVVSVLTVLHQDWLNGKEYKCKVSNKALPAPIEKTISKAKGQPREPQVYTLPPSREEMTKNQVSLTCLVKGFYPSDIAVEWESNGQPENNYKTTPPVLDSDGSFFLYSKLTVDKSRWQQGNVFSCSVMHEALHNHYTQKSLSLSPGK
light: B1 light
notes: HuAM4G7 IgG1 Fc variant
B14: A327L (antibody, human IgG1, kappa)
heavy: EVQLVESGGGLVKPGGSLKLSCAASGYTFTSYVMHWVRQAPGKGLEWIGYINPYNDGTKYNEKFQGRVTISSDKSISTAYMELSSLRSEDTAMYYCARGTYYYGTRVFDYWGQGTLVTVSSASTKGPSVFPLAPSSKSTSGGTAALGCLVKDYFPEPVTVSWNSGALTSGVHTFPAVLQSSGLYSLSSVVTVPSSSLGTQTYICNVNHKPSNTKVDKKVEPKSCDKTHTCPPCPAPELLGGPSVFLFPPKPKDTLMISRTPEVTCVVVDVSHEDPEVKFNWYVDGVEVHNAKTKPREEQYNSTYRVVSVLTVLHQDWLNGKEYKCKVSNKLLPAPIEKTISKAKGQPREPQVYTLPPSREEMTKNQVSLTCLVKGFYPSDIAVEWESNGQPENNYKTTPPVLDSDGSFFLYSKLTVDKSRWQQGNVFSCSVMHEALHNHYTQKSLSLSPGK
light: B1 light
notes: HuAM4G7 IgG1 Fc variant
B15: G236A/G237A (antibody, human IgG1, kappa)
heavy: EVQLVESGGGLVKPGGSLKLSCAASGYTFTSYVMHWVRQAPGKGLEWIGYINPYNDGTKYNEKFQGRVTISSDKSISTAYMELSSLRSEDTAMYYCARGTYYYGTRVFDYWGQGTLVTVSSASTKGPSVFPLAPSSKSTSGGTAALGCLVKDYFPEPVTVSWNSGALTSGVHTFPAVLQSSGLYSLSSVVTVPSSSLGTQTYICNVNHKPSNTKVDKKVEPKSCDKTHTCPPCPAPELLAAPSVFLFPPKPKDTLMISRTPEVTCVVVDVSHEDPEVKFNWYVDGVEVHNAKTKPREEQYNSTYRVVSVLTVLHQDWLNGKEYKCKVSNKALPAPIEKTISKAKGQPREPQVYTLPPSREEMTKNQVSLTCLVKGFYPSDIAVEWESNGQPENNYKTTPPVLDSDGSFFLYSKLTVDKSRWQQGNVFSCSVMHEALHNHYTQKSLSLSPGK
light: B1 light
notes: HuAM4G7 IgG1 Fc variant
B16: H268D/A327D/L328Y (antibody, human IgG1, kappa)
heavy: B1 heavy with H272D, E336I
light: B1 light
notes: HuAM4G7 IgG1 Fc variant
B17: G237H (antibody, human IgG1, kappa)
heavy: not shown
light: B1 light
notes: HuAM4G7 IgG1 Fc variant
B18: K326A (antibody, human IgG1, kappa)
heavy: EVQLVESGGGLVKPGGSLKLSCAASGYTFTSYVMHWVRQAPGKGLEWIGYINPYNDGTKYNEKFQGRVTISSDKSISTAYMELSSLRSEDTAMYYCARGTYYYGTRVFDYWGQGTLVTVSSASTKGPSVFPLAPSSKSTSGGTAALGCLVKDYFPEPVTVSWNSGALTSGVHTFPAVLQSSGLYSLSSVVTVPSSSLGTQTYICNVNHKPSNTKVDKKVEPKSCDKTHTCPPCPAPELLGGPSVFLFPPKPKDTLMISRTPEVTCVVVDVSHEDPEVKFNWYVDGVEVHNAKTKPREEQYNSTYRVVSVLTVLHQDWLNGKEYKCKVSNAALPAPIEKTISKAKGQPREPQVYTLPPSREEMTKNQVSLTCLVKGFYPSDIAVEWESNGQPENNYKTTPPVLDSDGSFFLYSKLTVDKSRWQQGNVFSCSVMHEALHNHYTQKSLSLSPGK
light: B1 light
notes: HuAM4G7 IgG1 Fc variant
B19: H268D/L328Y/I332E (antibody, human IgG1, kappa)
heavy: B1 heavy with H272D, D331A
light: B1 light
notes: HuAM4G7 IgG1 Fc variant
B20: H268D/L328F/I332E (antibody, human IgG1, kappa)
heavy: B1 heavy with H272D, D331A, Y332F
light: B1 light
notes: HuAM4G7 IgG1 Fc variant
B21: A330S (antibody, human IgG1, kappa)
heavy: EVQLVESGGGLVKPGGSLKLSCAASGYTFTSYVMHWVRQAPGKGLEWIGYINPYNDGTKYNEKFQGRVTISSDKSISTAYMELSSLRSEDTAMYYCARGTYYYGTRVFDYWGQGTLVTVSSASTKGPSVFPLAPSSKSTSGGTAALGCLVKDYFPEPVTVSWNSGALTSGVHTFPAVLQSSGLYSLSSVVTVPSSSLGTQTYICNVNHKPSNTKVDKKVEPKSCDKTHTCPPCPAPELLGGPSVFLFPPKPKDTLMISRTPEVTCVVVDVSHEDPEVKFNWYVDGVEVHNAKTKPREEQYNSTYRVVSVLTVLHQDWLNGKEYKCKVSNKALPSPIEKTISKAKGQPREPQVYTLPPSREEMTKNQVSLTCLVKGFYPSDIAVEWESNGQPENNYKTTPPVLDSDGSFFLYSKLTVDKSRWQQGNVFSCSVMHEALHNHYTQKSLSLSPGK
light: B1 light
notes: HuAM4G7 IgG1 Fc variant
B22: A330H (antibody, human IgG1, kappa)
heavy: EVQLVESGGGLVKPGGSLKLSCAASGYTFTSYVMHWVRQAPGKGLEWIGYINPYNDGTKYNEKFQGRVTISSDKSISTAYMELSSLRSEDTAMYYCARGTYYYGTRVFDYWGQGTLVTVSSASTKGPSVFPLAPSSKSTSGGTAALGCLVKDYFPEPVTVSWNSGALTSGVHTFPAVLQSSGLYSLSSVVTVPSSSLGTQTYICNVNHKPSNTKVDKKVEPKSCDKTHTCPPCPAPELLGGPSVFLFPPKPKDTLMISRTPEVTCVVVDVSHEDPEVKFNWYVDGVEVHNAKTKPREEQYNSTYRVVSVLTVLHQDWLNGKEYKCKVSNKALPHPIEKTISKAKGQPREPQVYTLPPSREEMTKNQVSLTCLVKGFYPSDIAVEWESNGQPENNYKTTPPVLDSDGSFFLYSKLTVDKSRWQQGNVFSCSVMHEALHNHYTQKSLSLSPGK
light: B1 light
notes: HuAM4G7 IgG1 Fc variant
B23: G236I (antibody, human IgG1, kappa)
heavy: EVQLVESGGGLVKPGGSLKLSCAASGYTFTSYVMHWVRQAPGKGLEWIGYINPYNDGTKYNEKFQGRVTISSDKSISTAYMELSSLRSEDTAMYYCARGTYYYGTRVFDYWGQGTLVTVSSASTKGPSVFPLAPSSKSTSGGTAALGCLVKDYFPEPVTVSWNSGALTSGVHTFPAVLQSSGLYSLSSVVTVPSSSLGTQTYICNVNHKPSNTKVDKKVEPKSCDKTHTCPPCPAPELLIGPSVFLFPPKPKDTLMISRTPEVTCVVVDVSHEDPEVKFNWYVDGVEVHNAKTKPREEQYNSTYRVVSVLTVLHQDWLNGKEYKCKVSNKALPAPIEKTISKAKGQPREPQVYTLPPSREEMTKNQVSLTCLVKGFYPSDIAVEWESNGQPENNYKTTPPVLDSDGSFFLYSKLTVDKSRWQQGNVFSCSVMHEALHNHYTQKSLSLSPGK
light: B1 light
notes: HuAM4G7 IgG1 Fc variant

Target: T1, human FcγRIIb receptor protein (R&D Systems) (human, UniProt P31994 46-217)
T1 construct: Analyte injected over antibodies captured on a protein A/G chip (Biacore); also called CD32b
T1 sequence (looked up): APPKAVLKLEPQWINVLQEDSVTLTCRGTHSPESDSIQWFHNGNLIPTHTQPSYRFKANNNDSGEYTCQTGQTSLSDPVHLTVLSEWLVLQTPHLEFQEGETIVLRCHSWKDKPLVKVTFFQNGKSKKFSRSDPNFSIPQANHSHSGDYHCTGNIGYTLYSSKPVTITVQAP
Experiment: SPR (Biacore)
Method: Variants were screened for receptor affinity using Biacore™ technology, also referred to as Biacore herein, a surface plasmon resonance (SPR) based technology for studying biomolecular interactions in real time. SPR measurements were performed using a Biacore 3000 instrument (Biacore, Piscataway, N.J.). A protein A/G (Pierce Biotechnology) CM5 biosensor chip (Biacore) was generated using a standard primary amine coupling protocol. All measurements were performed using HBS-EP buffer (10 mM HEPES pH 7.4, 0.15 M NaCl, 3 mM EDTA, 0.005% vol/vol surfactant P20, Biacore). Antibodies at 20 nM or 50 nM in HBS-EP buffer were immobilized on the protein A/G surface and FcγRs were injected. After each cycle, the surface was regenerated by injecting glycine buffer (10 mM, pH 1.5). Data were processed by zeroing time and response before the injection of FcγR and by subtracting appropriate nonspecific signals (response of reference channel and injection of running buffer). Kinetic analyses were performed by global fitting of binding data with a 1:1 Langmuir binding model using BIAevaluation software (Biacore).

Binder | Fold FcγRIIb [fold] | binding result
B1 | 2.31 | –
B2 | 7.68 | –
B3 | 39.8 | –
B4 | – | no binding
B5 | 0.0797 | –
B6 | 8.53 | –
B7 | 1.91 | –
B8 | – | no binding
B9 | – | no binding
B10 | 11.6 | –
B11 | 18.6 | –
B12 | 1.55 | –
B13 | – | no binding
B14 | – | no binding
B15 | 0.0578 | –
B16 | 3.49 | –
B17 | – | no binding
B18 | – | no binding
B19 | 4.89 | –
B20 | 12.3 | –
B21 | 0.0635 | –
B22 | – | no binding
B23 | – | no binding
